Experimental findings from the Immune Epitope Database (IEDB) are described below.

The target of assay [1] is HLA-A*02:01. Nature of the assay: IEDB peptide-MHC binding, purified MHC/competitive/fluorescence; ≥ and ≤ were set here for values at or beyond the usual limits of such assays.
In assay [2] the target is HLA-B*15:01. Described as above.
For a further assay, the target named is HLA-A*26:01. The assay can be described thus: IEDB peptide-MHC binding, purified MHC/competitive/radioactivity; filed as Kd, often an IC50 or EC50 that approximates it; ≥ and ≤ were set here for values at or beyond the usual limits of such assays. The settings on record: source organism: Dengue virus 4 Philippines/H241/1956.
For another assay, the target named is HLA-A*68:02. Described as above.
Another assay addresses HLA-B*53:01. The description is as above.
The next assay concerns the target HLA-B*35:01. Described as above.
The target of a further assay is HLA-B*54:01. Described as above. The settings on record: source organism: Vaccinia virus WR.
A further assay deals with HLA-B*07:02. The description is as above.
The target of the next assay is HLA-B*51:01. The description is as above. The settings on record: source organism: Vaccinia virus WR.
Another assay has as its target HLA-A*24:02. Nature of the assay: IEDB peptide-MHC binding, purified MHC/competitive/fluorescence; ≥ and ≤ were set here for values at or beyond the usual limits of such assays.
In another assay the target is HLA-A*32:01. The assay can be described thus: IEDB peptide-MHC binding, purified MHC/competitive/radioactivity; filed as Kd, often an IC50 or EC50 that approximates it; ≥ and ≤ were set here for values at or beyond the usual limits of such assays. Conditions: source organism: Vaccinia virus WR.
The target in assay [3] is HLA-A*02:01. The description is as above.
Another assay has as its target HLA-A*02:02. Described as above.
The next assay concerns the target HLA-A*02:06. The assay is described as above.
A further assay concerns the target HLA-A*02:03. Described as above.
In the next assay the target is HLA-B*44:02. The assay can be described thus: IEDB peptide-MHC binding, purified MHC/direct/fluorescence; filed as Kd, often an IC50 or EC50 that approximates it; ≥ and ≤ were set here for values at or beyond the usual limits of such assays.
The next assay has as its target HLA-B*18:01. The assay is described as above.
The next assay addresses HLA-B*40:01. The assay is described as above.
The target of assay [4] is HLA-B*15:01. Described as above. The settings on record: source organism: Giardia lamblia ATCC 50803.
Another assay concerns the target HLA-B*58:01. Described as above. The settings on record: source organism: Giardia lamblia ATCC 50803.
Another assay deals with HLA-B*57:01. Described as above. The settings on record: source organism: Giardia lamblia ATCC 50803.
Where [5] appears, read: source organism: Zaire ebolavirus.
[6] abbreviates: source organism: Dengue virus 4 Philippines/H241/1956.
Setting [7] is: source organism: Vaccinia virus WR.
Where [8] appears, read: source organism: Vaccinia virus Copenhagen.
Where [9] appears, read: source organism: Dengue virus 2 Jamaica/1409/1983.
Where [10] appears, read: source organism: Sudan ebolavirus.
Where [11] appears, read: source organism: Influenza A virus (A/duck/Guangxi/1586/2004(H5N1)).
Where [12] appears, read: source organism: Orthohantavirus dobravaense.
[13] abbreviates: source organism: Triticum aestivum.
The mark [14] stands for this setting: source organism: Mammarenavirus lassaense.
[15] abbreviates: source organism: Vaccinia virus.
Setting [16] is: source organism: Orthohantavirus andesense.

GVPPKVVNY: the IC50 with HLA-A*02:01 [1] (setting [5]) was at least 199 µM; with HLA-B*15:01 [2] (setting [5]), at least 211 µM.

For the sequence HMMKDEPVV, the IC50 with HLA-A*02:01 [1] (setting [5]) was 8.76 µM; with HLA-B*15:01 [2] (setting [5]), 46.3 µM.

For HTIENTSANL, the Kd with HLA-A*26:01 is at least 48.9 µM; with HLA-A*68:02 (setting [6]), 0.015 µM.

Consider IPEISSNDNA, for which the Kd with HLA-B*53:01 (setting [7]) was 2.39 µM; with HLA-B*35:01 (setting [7]), at least 69.9 µM; with HLA-B*54:01, 4.54 µM; with HLA-B*07:02 (setting [7]), at least 69.6 µM; with HLA-B*51:01 it was at least 69.6 µM.

Regarding IPVTMTLWYM, the Kd with HLA-B*53:01 (setting [6]) came to 0.0692 µM; with HLA-B*35:01 (setting [6]), 0.156 µM; with HLA-B*07:02 (setting [6]), 0.744 µM.

As for ISIKLTDSL, the IC50 stood at 7.32 µM with HLA-A*02:01 [1] (setting [8]), 5.59 µM with HLA-B*15:01 [2] (setting [8]) and 3.66 µM with HLA-A*24:02 (setting [8]).

Consider LAANAICSAV, for which, in the assay with HLA-A*68:02 (setting [9]), the Kd came to 0.00904 µM.

For LLLWFNYLF, the IC50 with HLA-A*02:01 [1] (source organism: Variola virus) is 0.125 µM; with HLA-B*15:01 [2] (source organism: Variola virus), at least 2970 µM. In addition, the Kd with HLA-A*32:01 came to 0.00145 µM.

With LLQLPRDKF, the IC50 with HLA-A*02:01 [1] (setting [10]) is 13.3 µM; in the assay with HLA-B*15:01 [2] (setting [10]) it was 10.6 µM; in the assay with HLA-A*24:02 (setting [10]), 4.77 µM.

For LMHNQDGLI, the IC50 in the assay with HLA-A*02:01 [1] (setting [5]) came out at 1.72 µM; in the assay with HLA-B*15:01 [2] (setting [5]), 67.4 µM; with HLA-A*24:02 (setting [5]), 24.6 µM.

On to LPNVQFVDI, for which the equilibrium dissociation constant (Kd) stood at 0.0652 µM in the assay with HLA-B*53:01 (setting [7]); 0.234 µM in the assay with HLA-B*35:01 (setting [7]); 0.0168 µM with HLA-B*54:01; 2.71 µM with HLA-B*07:02 (setting [7]); 0.0322 µM with HLA-B*51:01.

On to LQSPPIREA, for which the IC50 turned out to be 14.3 µM with HLA-A*02:01 [1] (setting [10]) and 37.8 µM with HLA-B*15:01 [2] (setting [10]).

Consider NVSIPWTHK, for which the Kd with HLA-A*02:01 [3] (source organism: Hepatitis B virus subtype adw2) is at least 35 µM.

As to QLADETLLKV, the Kd with HLA-A*68:02 (source organism: Homo sapiens) came out at 11.9 µM; in the assay with HLA-A*02:02 (source organism: Homo sapiens) it was 0.014 µM; in the assay with HLA-A*02:06 (source organism: Homo sapiens) it was 0.0614 µM.

As to QLYKEQLAKL, the equilibrium dissociation constant (Kd) in the assay with HLA-A*02:01 [3] (source organism: Homo sapiens) amounted to 0.078 µM; in the assay with HLA-A*02:03 (source organism: Homo sapiens), 0.0163 µM; with HLA-A*68:02 (source organism: Homo sapiens) it was 7.62 µM; with HLA-A*02:02 (source organism: Homo sapiens), 0.00463 µM.

Turning to QMKDCMREL, in the assay with HLA-A*68:02 (source organism: Homo sapiens), the Kd is at least 60 µM.

Take QVMLLILCV: the Kd with HLA-A*68:02 (setting [9]) worked out at 1.74 µM.

Regarding REILTKTTV, the equilibrium dissociation constant (Kd) with HLA-B*44:02 (setting [11]) is at least 47.8 µM; with HLA-B*18:01 (setting [11]) it was 0.358 µM; with HLA-B*40:01 (setting [11]), 0.0049 µM.

With SEVTTCFFL, the Kd is 0.0485 µM with HLA-B*18:01 (setting [12]) and 0.0127 µM with HLA-B*40:01 (setting [12]).

As to SILRVGTLT, in the assay with HLA-A*02:01 [3] (source organism: Lassa virus Josiah), the Kd is at least 25 µM.

SLAKHGEYA: the IC50 with HLA-A*02:01 [1] (setting [5]) was 7.2 µM; in the assay with HLA-B*15:01 [2] (setting [5]), at least 127 µM.

With SQCQAIHNV, the Kd in the assay with HLA-A*02:01 [3] (setting [13]) came out at 0.972 µM; in the assay with HLA-A*02:03 (setting [13]) it was 0.254 µM; with HLA-A*68:02 (setting [13]) it was 5.79 µM; in the assay with HLA-A*02:02 (setting [13]), 0.77 µM; in the assay with HLA-A*02:06 (setting [13]), 0.132 µM.

In the case of TIAVSTANI, in the assay with HLA-A*68:02 (setting [6]), the dissociation constant (Kd) was determined as 0.0256 µM.

As to TSLSMTCIAV, the Kd with HLA-A*68:02 (source organism: Dengue virus 1 Brazil/97-11/1997) was determined as 13.5 µM.

Turning to TTATITPQA, the Kd with HLA-A*68:02 (source organism: Dengue virus 1 Nauru/West Pac/1974) came to 0.00112 µM.

Consider TTPFGQQRV, for which, in the assay with HLA-A*68:02 (setting [6]), the Kd came to 0.102 µM.

Take VENSPRASL: the Kd amounted to 0.552 µM in the assay with HLA-B*18:01 (setting [14]) and 0.114 µM in the assay with HLA-B*40:01 (setting [14]).

On to VFAPKQKMF, for which the 50% inhibitory concentration (IC50) in the assay with HLA-B*15:01 [2] (setting [15]) was found to be 14 µM; with HLA-A*24:02 (setting [15]) it was 0.0261 µM.

YEGDLRVTF: the Kd in the assay with HLA-B*44:02 (setting [16]) was 4.3 µM; with HLA-B*18:01 (setting [16]), at most 0.001 µM; in the assay with HLA-B*40:01 (setting [16]), 0.0083 µM.

Take YMYAATNTH: the Kd is 0.04 µM in the assay with HLA-B*15:01 [4], at least 20 µM in the assay with HLA-B*58:01 and at least 20 µM with HLA-B*57:01.

Usually IC50 stands for the point on the concentration scale where inhibition reaches its midpoint. High values mean a need for much substance, low ones inhibition by little substance. As a reminder, the Kd is the constant that tells how readily two partners part at equilibrium.
